Data taken from patent US20030028002A1, “Cyclin D binding factor, and uses thereof” (published 2003).

Assays:
[1] = target: T1, DMP1 M11 (K319E) K319E (Mus musculus) (UniProt Q8CE22); experiment: EMSA; conditions: very faint band
T1 sequence: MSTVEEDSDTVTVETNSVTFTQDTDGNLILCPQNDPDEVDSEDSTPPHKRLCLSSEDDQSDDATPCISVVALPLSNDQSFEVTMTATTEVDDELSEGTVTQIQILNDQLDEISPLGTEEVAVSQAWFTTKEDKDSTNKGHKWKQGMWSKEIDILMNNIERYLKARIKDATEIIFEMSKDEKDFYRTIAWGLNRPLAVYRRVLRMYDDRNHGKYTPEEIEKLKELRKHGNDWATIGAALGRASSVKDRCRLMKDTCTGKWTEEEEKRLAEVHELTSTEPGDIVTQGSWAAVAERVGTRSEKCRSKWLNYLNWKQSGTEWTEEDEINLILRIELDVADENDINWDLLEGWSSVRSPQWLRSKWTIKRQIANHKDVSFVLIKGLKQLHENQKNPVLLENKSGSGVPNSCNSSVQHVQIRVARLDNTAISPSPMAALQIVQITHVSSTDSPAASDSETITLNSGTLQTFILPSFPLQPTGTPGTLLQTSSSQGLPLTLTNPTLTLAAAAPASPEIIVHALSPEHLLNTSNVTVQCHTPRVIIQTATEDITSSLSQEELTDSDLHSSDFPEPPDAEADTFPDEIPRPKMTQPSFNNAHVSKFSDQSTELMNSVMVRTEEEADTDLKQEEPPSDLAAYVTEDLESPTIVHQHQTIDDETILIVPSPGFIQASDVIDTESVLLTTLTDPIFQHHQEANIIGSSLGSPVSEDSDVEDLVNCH

[2] = target: T2, DMP1 expressed in NIH-3T3 cells (Mus musculus) (UniProt Q8CE22); experiment: cell_activity; conditions: BS2 luciferase reporter
T2 sequence: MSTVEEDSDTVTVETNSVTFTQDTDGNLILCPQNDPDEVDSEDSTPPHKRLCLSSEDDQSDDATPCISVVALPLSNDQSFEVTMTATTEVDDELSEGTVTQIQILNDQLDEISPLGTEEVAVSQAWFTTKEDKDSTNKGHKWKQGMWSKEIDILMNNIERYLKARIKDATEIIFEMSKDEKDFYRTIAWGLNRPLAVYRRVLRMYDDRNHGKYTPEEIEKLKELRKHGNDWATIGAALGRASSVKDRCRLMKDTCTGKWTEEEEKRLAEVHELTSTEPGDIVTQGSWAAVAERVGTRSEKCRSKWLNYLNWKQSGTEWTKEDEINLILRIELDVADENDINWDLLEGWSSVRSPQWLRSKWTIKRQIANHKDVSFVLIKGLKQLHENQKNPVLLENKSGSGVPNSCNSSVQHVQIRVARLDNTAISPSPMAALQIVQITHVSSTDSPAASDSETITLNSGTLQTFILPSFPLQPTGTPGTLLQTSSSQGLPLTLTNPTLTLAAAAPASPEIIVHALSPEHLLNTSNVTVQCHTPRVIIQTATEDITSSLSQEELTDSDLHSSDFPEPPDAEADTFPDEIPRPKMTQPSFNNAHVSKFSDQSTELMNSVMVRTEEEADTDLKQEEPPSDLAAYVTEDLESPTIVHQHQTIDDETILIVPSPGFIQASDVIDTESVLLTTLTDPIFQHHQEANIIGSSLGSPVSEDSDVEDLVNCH

[3] = target: T3, DMP1 expressed in 293T cells (Mus musculus) (UniProt Q8CE22); experiment: cell_activity; conditions: 8x BS2 luciferase reporter
T3 sequence: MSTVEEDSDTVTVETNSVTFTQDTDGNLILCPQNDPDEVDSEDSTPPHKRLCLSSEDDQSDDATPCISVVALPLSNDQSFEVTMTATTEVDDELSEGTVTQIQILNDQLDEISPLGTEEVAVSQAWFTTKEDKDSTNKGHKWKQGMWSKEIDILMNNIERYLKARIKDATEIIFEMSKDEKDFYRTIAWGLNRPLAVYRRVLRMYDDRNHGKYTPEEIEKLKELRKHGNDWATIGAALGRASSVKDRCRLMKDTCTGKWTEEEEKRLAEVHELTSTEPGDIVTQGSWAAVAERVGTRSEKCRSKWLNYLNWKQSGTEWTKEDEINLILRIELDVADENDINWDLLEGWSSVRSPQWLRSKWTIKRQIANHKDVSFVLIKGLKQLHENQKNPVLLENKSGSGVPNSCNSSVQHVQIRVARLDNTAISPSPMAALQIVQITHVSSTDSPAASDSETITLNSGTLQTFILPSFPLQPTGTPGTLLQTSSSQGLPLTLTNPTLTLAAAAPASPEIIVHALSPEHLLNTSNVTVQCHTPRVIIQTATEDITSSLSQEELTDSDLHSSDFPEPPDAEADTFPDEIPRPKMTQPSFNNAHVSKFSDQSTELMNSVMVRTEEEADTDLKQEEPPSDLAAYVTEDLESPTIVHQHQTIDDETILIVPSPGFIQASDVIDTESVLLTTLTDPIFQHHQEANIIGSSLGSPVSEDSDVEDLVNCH

[4] = target: T4, DMP1 M11 (K319E) expressed in NIH-3T3 cells K319E (Mus musculus) (UniProt Q8CE22); experiment: cell_activity; conditions: BS2 luciferase reporter
T4 sequence: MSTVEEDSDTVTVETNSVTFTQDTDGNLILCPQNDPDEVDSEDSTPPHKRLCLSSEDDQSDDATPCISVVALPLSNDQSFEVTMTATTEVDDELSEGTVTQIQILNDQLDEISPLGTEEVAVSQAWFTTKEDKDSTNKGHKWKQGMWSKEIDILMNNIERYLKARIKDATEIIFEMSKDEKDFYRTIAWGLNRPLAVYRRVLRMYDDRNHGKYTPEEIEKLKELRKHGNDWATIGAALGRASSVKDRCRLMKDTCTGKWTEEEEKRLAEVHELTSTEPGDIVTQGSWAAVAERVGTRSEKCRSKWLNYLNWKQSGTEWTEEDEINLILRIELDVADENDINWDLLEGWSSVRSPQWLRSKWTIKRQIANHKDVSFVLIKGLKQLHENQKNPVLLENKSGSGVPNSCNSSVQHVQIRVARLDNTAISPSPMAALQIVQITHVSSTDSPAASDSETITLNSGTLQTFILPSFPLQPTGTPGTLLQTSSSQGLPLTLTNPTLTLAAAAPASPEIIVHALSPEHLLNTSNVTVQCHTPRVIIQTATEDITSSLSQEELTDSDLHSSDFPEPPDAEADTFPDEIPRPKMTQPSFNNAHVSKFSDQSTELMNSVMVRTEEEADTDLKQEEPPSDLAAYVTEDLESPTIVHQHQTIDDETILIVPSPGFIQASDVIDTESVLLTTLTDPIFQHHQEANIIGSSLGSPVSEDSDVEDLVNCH

D-type cyclins = experiment: coexpression in Sf9 cells, coprecipitation (FIG. 3)

Question: What does the source list for “AATTGACCCGTATGTAGGTACGC (double strand) [BS2]”?
Answer: binding signal (% of wild type) [1]: 2; activity (fold activation) [2]: 8.4; activity (fold activation) [3]: 20; activity (fold activation) [4]: 1.1

B1: DMP1 (cyclin D-binding myb-like protein), murine, full length (protein)
chain: MSTVEEDSDTVTVETVNSVTFTQDTDGNLILHCPQNDPDEVDSEDSTEPPHKRLCLSSEDDQSIDDATPCISVVALPLSENDQSFEVTMTATTEVADDELSEGTVTQIQILQNDQLDEISPLGTEEVSAVSQAWFTTKEDKDSLTNKGHKWKQGMWSKEEIDILMNNIERYLKARGIKDATEIIFEMSKDERKDFYRTIAWGLNRPLFAVYRRVLRMYDDRNHVGKYTPEEIEKLKELRIKHGNDWATIGAALGRSASSVKDRCRLMKDTCNTGKWTEEEEKRLAEVVHELTSTEPGDIVTQGVSWAAVAERVGTRSEKQCRSKWLNYLNWKQSGGTEWTKEDEINLILRIAELDVADENDINWDLLAEGWSSVRSPQWLRSKWWTIKRQIANHKDVSFPVLIKGLKQLHENQKNNPVLLENKSGSGVPNSNCNSSVQHVQIRVARLEDNTAISPSPMAALQIPVQITHVSSTDSPAASADSETITLNSGTLQTFEILPSFPLQPTGTPGTYLLQTSSSQGLPLTLTTNPTLTLAAAAPASPEQIIVHALSPEHLLNTSDNVTVQCHTPRVIIQTVATEDITSSLSQEELTVDSDLHSSDFPEPPDALEADTFPDEIPRPKMTIQPSFNNAHVSKFSDQNSTELMNSVMVRTEEEIADTDLKQEEPPSDLASAYVTEDLESPTIVHQVHQTIDDETILIVPSPHGFIQASDVIDTESVLPLTTLTDPIFQHHQEASNIIGSSLGSPVSEDSKDVEDLVNCH
modifications: multiple phosphorylated forms when made in Sf9 cells (sites not given)
Question: How did the percent of DMP1 molecules in stable complexes with D-type cyclins (D-type cyclins) turn out when B1 was run?
Answer: < 15%
